Measured values reported in US20210403565A1 (BIOATLA, published 2021).

T1: human CTLA4 expressed on the cell surface of CHO cells (human, UniProt P16410 36-223)
T1 construct: whole, on cells; also called CHO-huCTLA4; huCTLA4
T1 sequence (looked up): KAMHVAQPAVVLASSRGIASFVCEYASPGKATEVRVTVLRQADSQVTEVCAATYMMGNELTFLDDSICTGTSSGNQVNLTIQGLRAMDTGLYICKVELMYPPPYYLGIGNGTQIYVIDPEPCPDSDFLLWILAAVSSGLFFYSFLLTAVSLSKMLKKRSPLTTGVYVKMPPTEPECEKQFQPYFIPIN

T2: recombinant human CTLA4 extracellular domain (human, UniProt P16410 36-161)
T2 construct: extracellular domain; also called huCTLA-4
T2 sequence (looked up): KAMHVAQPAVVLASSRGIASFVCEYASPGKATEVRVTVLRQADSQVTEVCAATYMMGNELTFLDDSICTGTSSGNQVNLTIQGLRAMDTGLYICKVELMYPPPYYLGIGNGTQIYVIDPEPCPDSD


Columns and labels:
[1] = molecular target: T1, human CTLA4 expressed on the cell …; assay: FACS, cells expressing human CTLA4, assay pH 6.0, MFI; lot 6972 in His buffer, T0; unit from the axis Log[ng/mL]
Procedure: (§1) The amount of bound antibodies was quantified using anti-human IgG antibody conjugated to fluorophores. The MFI in each reaction was proportional to the amount of antibodies bound. The EC₅₀ value (in ng/mL) for binding to human CTLA4 on cells was determined by MFI of the singlets population against antibody concentration with a Prism variable slope of four-parameter dose-response curve, which was calculated using the nonlinear fit (variable slope, four parameters) model built into GraphPad Prism software (version 7.03).

[2] = molecular target: T2, recombinant human CTLA4 extracellular …; assay: ELISA, wells coated with human CTLA4, assay pH 6.0; lot 6972 without test buffer; same column repeated in FIG. 9B and FIG. 9C; unit from the axis Log[ng/mL]
Procedure: (§2) Both ELISA and FACS analysis were used to measure the binding activity. […] The amount of bound antibodies was quantified using anti-human IgG antibody conjugated to HRP. The absorbance at 450 nm in each measurement was proportional to the amount of antibodies bound. […] EC50 value (in ng/mL) for binding to human CTLA4 was determined by absorbance at 450 nm against antibody concentration with Prism variable slope of four-parameter dose-response curve, which was calculated using the nonlinear fit (variable slope, four parameters) model built into GraphPad Prism software (version 7.03). The buffers tested included His buffer (His), Tris buffer (Tris), Glutamine buffer (Glu) and no buffer.

[3] = molecular target: T1, human CTLA4 expressed on the cell …; assay: FACS, cells expressing human CTLA4, assay pH 6.0, MFI; lot 6972 in Glu buffer, T2W; unit from the axis Log[ng/mL]
Procedure: as §1

[4] = molecular target: T1, human CTLA4 expressed on the cell …; assay: FACS, cells expressing human CTLA4, assay pH 7.4, MFI; lot 6972 in Glu buffer, T2W; unit from the axis Log[ng/mL]
Procedure: as §1

[5] = molecular target: T2, recombinant human CTLA4 extracellular …; assay: ELISA, immobilised huCTLA-4, table head pH 7.0 (text: pH 7.4), Jun. 27, 2017
[6] = molecular target: T2, recombinant human CTLA4 extracellular …; assay: ELISA, wells coated with human CTLA4, assay pH 6.0; lot 6972 in Glu buffer, T0; unit from the axis Log[ng/mL]
Procedure: as §2

[7] = molecular target: T1, human CTLA4 expressed on the cell …; assay: FACS, cells expressing human CTLA4, assay pH 6.0, MFI; lot 6972 in Tris buffer, T0; unit from the axis Log[ng/mL]
Procedure: as §1

[8] = molecular target: T1, human CTLA4 expressed on the cell …; assay: FACS saturation, CHO-huCTLA-4, pH 7.4, MFI, titration up to about log 6.5; no unit in the table, unit from the axis Log Antibodies [ng/ml]
Procedure: The amount of antibodies bound on the cells was quantified using anti-human IgG antibody conjugated to fluorophores. EC₅₀ values at pH 6.0 and 7.4 for binding to cells were calculated using the nonlinear fit (variable slope, four parameters) model built into GraphPad Prism software (version 7.03). The expression levels of human CTLA4 or cynomolgus CTLA4 on the surface of the CHO cells were determined using a BD QuantiBRITE™ PE kit.
Finally, saturations of the antibodies on the CHO cells expressing human or cynomolgus CTLA4 at pH 7.4 were also measured by FACS (FIGS. 8A-8B).

[9] = molecular target: T2, recombinant human CTLA4 extracellular …; assay: ELISA, wells coated with human CTLA4, assay pH 7.4; lot 6972 without test buffer; same column repeated in FIG. 9B and FIG. 9C; unit from the axis Log[ng/mL]
Procedure: as §2

[10] = molecular target: T2, recombinant human CTLA4 extracellular …; assay: ELISA, wells coated with human CTLA4, assay pH 6.0; lot 6978 in Glu buffer, T2W; unit from the axis Log[ng/mL]
Procedure: as §2

[11] = molecular target: T2, recombinant human CTLA4 extracellular …; assay: ELISA, wells coated with human CTLA4, assay pH 7.4; lot 6978 in Glu buffer, T2W; curve still rising at log 3 (OD450 at most about 0.3), no plateau; unit from the axis Log[ng/mL]
Procedure: as §2

[12] = molecular target: T2, recombinant human CTLA4 extracellular …; assay: ELISA, wells coated with human CTLA4, assay pH 6.0; lot 6978 in Glu buffer, T0; unit from the axis Log[ng/mL]
Procedure: as §2

[13] = molecular target: T2, recombinant human CTLA4 extracellular …; assay: ELISA, wells coated with human CTLA4, assay pH 6.0; lot 6978 in Tris buffer, T0; unit from the axis Log[ng/mL]
Procedure: as §2

[14] = molecular target: T1, human CTLA4 expressed on the cell …; assay: FACS, cells expressing human CTLA4, assay pH 6.0, MFI; lot 6978 in Tris buffer, T2W; unit from the axis Log[ng/mL]
Procedure: as §1

EC50 [1]	EC50 [2]	EC50 [3]	EC50 [4]	EC50 [5]	EC50 [6]	EC50 [7]	EC50 [8]	EC50 [9]	EC50 [10]	EC50 [11]	EC50 [12]	EC50 [13]	EC50 [14]	Binder
0.291 µg/mL	6.26 ng/mL	0.267 µg/mL	0.607 µg/mL	0.0358 µg/mL	0.0109 µg/mL	0.291 µg/mL	0.846 µg/mL	0.0546 µg/mL						BA-087-05-19 (antibody, V domains shown, Detected with anti-human IgG and a molecular weight of 146 kDa was used in SPR, so it was tested as a whole IgG; also called BA-087-05-019; BA-087-05-19 (# 6972)) VH: EVQLVESGGGLVQPGGSLRLSCAASGFTFSHYTMHWVRQAPGKGLEWVSFISYDGNNKYYADSVKGRFTISRDNSKNTLYLQMNSLRAEDTAVYYCARTGWLGPFDYWGQGTLVTVSS VL: AIQLTQSPSSLSASVGDRVTITCRASQYVGSSYLAWYLQKPGQSPQLLIYGAFSRATGIPARFSGSGSGTEFTLTISSLQSEDFAVYYCQQDGSSPWTFGQGTKVEIK
									0.0123 µg/mL	0.724 µg/mL	0.0337 µg/mL	0.0171 µg/mL	~0.152 µg/mL	BA-087-08-32 (antibody, V domains shown, Detected with anti-human IgG and a molecular weight of 146 kDa was used in SPR, so it was tested as a whole IgG; also called BA-087-08-032; BA-087-08-32 (# 6978)) VH: EVQLVQSGAEVKKPGATVKISCKVSGFTFSHYTMHWIRQSPSRGLEWLGFISYDGNYKYYADSVKGRFTISRDNAKNSLYLQMNSLRAEDTAVYYCARTGWLGPFDYWGQGTLVTVSS VL: EIVMTQSPATLSVSPGERATLSCRASQSVGSSYLAWYQQKPGKAPKLLIYGAFSRATGVPSRFSGSGSGTDFTLTISSLQPEDFATYYCQQDGSSPWTFGQGTKVEIK
